According to patent US20140037708A1, “COMPOSITION FOR SPATIO AND/OR TEMPORAL RELEASE OF BIOACTIVE MATERIAL” (The Regents of the University of Colorado, a body corporate, priority 2012, published 2014):

Experiment: Double-sided release test of fluorescent molecules from electrospun scaffolds in custom-made diffusion chambers
Format: physicochemical
Experimental: For molecule release characterizations, the circular samples with 24 mm in diameter were cut from PCL-PLGAac and PCL-PLGAes scaffolds loaded with fluorescent dye or fluorescently-labeled albumin. For each experimental condition, 3 samples were used for analyses. Scaffold samples were placed in a custom-made diffusion-test system in which a sample was sandwiched between two reservoir chambers. Each side of the electrospun scaffolds thus faced a different reservoir filled with 1 ml of buffer solution. The reservoirs used SecureSeal hybridization chambers (Grace Biolabs, Bend, Oreg.) which tightly sealed the surface. Each reservoir had small holes for sampling and changing solutions. The holes were covered with silicone sealing tap during experiments to prevent evaporation. Thus, the molecule movements between the reservoirs could only be through the pores of the electrospun materials. The release tests were performed at 37° C. Samples of buffer solutions in both reservoirs were collected every day during the first 16 days, and subsequently once a week for scaffolds loaded with fluorescent albumins. A shorter release experiment was performed in case of electrospun scaffolds loaded with Rh123. After samples were taken, the reservoir chambers were rapidly rinsed with DI water and refilled with fresh phosphate buffer at 37° C. […] The geometry and porosity of the molecule-releasing scaffolds kept constant for all the experimental samples. For the designs with multiple molecules, as various fluorophores could be simultaneously released by the samples, the possibility of the overlap of the fluorophore emission spectra was examined; we could find no overlaps in the interested spectrum ranges. […] For each type of molecule, the efficiency of separation between Side A and Side B, Smolecule—A-B, was defined as the percentage of the molecule released on Side A over the total amount of the molecule released on Sides A and B during the entire experimental duration.
To assess the potential use of PCL-PLGAac and PCL-PLGAes materials for spatially controlled release of active molecules, release experiments were performed using Rh123. PCL and PLGA/Rh123 solutions were electrospun to prepare scaffolds following the pattern described in FIG. 1. Release studies were carried out in custom-made diffusion chambers illustrated in FIG. 7a. The two sealed reservoirs filled with phosphate buffer solution were placed on the opposite sides of the electrospun scaffolds. The PCL side of the scaffold was set to face the buffer reservoir chamber on Side “A”; the Rh123-impregnated PLGA side was placed in contact with the buffer reservoir on Side “B”. […] The separation efficiency of Rh123 between the two surfaces (SRh123—B-A) of the PCL-PLGAac scaffolds was 82±5% during the 9-day release experiment. […] In addition, after day 3, the molecule concentration measured on the PCL side exceeded that on the PLGAes side.

Substance: fluorescein isothiocyanate conjugate bovine serum albumin [AlbF]
- separation efficiency (release of two proteins to one side) (PCL-PLGAac composite scaffold, AlbF in inner PLGAac fibers, AlbT in outer PLGAac fibers (FIG. 10a)): 87±5%
- separation efficiency between side B and side A (sequential release scaffold) (PCL/PLGA scaffold with dual PLGA gradient patterns: AlbF-loaded PLGA in the middle, AlbT-loaded PLGA close to side B (FIG. 11a)): 0.92±0.03
- separation efficiency of AlbF between Side A and Side B (SAlbF A-B) (PLGAac-PCL-PLGAac composite scaffold, release to opposite sides (FIG. 12)): 91±4%
- initial release rate on Side B compared to AlbT (dual-protein PCL-PLGAac scaffold, first 10 days, cumulative release normalized to total delivered protein): slower rate
- day on which daily net release to side B peaked (sequential release scaffold (FIG. 11), first 12 days): 5 days
